Experimental findings from patent US6890726, “Method for selecting recombinase variants with altered specificity” (Oklahoma Medical Research Foundation) are described below.

What all share (settings): chain copies: 4
In data set [1] the target is T1, Cre R3M2 (mxoxox 2) (UniProt P06956 SEQ:1-343).
T1 chain: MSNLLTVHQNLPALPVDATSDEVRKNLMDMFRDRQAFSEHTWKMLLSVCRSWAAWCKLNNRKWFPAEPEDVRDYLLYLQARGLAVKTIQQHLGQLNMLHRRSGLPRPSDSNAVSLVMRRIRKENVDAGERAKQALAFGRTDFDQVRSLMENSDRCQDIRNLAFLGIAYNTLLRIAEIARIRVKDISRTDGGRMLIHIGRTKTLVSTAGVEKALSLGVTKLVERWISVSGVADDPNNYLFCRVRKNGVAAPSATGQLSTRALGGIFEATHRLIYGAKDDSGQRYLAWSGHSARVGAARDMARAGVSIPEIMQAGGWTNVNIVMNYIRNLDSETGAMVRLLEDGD
The data set can be described thus: cell_activity; E. coli.

For data set [2], the target named is T2, Cre R3M1 (mxoxox 1) (UniProt P06956 SEQ:1-343).
T2 chain: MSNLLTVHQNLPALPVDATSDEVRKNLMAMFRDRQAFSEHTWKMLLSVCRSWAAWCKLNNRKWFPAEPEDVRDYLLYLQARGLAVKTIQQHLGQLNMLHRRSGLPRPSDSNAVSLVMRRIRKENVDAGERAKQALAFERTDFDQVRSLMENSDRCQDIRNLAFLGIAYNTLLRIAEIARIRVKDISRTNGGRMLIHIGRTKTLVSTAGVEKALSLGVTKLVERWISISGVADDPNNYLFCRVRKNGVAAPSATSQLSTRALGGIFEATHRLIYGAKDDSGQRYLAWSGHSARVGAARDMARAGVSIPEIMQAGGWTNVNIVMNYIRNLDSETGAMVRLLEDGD
Briefly: cell_activity; E. coli.

For data set [3], the target named is T3, Cre R3M3 (mxoxox 3) (UniProt P06956 SEQ:1-343).
T3 chain: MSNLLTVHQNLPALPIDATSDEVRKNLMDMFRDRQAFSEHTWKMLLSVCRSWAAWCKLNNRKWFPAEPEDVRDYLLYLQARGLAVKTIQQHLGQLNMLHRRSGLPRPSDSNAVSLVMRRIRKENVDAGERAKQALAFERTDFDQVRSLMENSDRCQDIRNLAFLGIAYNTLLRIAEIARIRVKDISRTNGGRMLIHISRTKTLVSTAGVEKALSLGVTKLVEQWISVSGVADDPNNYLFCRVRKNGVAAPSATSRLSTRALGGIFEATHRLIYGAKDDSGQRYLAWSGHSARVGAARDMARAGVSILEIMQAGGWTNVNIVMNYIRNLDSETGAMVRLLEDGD
Briefly: cell_activity; E. coli.

Data set [4] addresses Cre E262W (UniProt P06956 P06956:1-343, E262W). Briefly: cell_activity; similar to E262G. The source says:
(§1) The three defined Cre mutants for the amino acid position 262 were subjected to a functional test for loxK2, loxK1 and loxP recombination activity, as mentioned before. […] To conclude, this final experiment provides the necessary evidence that the E262G mutation presents the basis for the observed decrease in specificity of Cre. However, additional mutations seem to be helpful to increase the newly obtained activity further. In addition, glycine at position 262 is not the only possible residue to permit a remarkable increase in loxK2 activity.
(§2) The results of functional testing of three defined Cre mutants for position 262 compared to wt Cre are listed. All enzymes were checked on loxK2, loxP and loxK1 recombination in the selection strains BS1494, BS1493 and the control strain BS1541. In the first column the Cre candidate is indicated, in the second the allowed time for cre expression. The three following columns show the calculated percentages of Kan^R when subjecting the different Cre mutants and wt Cre to the three selection strains. The frequency of the observed Kan^R phenotype is considered as an indicator for the frequency of […] recombination: On loxK2, E262G and E262W show approximately an 10^3 fold increased Kan^R frequency compared to wt Cre, whereas E262A results in a 200 fold increase. […]

Data set [5] addresses Cre E262A (UniProt P06956 P06956:1-343, E262A). The data set can be described thus: cell_activity; E. coli.
Text: as §1, §2

B1: loxK2 (selection plasmid pBS584) (dsDNA)
DNA 1: GATACAACGTATATACCTTTCTATACGTTGTATT
DNA 2: AATACAACGTATAGAAAGGTATATACGTTGTATC
As for B1, the activity in data set [1] was roughly 50 % recombination; in data set [2] it was roughly 50 % recombination; in data set [3], roughly 50 % recombination; in data set [4] it was roughly 1000 fold vs wt; in data set [5] it was 200 fold vs wt.
